From patent publication US20260242735A1 (UNIVERSIT T BASEL, published 2026)
One block for each binder: values may come before it.

Tests used:
[1] = target: human CD33 F21L (human, UniProt P20138 18-364); experiment: flow cytometry, mutant on cells, IgG
Method: (§1) An alanine scan on human CD33 was performed to the determine the residues on CD33 that are involved in binding to the antibodies investigated. […] Briefly, a mutation library of CD33 was created by high-throughput, site-directed mutagenesis. Each residue was individually mutated to alanine, with alanine codons mutated to serine. The mutant library was arrayed in 384-well microplates and transiently transfected into HEK293-T. Following transfection, cells were incubated with the indicated antibodies (IgG or Fab) at concentrations pre-determined using an independent immunofluorescence titration curve on wild type CD33. […] Binding of each antibody to each mutant clone was determined in duplicates. For each point, background fluorescence was subtracted from the raw data, which were then normalized to antibody reactivity with wild type CD33.
(§2) Antibodies were screened for binding to the human CD33 variants in IgG format. […] For each mutation, background fluorescence was subtracted from the raw data, which were then normalized to antibody reactivity with wild-type CD33.

[2] = target: human CD33 F21I (human, UniProt P20138 18-364); experiment: flow cytometry, mutant on cells, IgG
Method: as §1, §2

[3] = target: human CD33 Q24E (human, UniProt P20138 18-364); experiment: flow cytometry, mutant on cells, IgG
Method: as §1, §2

[4] = target: human CD33 L23M (human, UniProt P20138 18-364); experiment: flow cytometry, mutant on cells, IgG
human CD33 L23M, sequence (P20138 18-364 L23M limits assumed): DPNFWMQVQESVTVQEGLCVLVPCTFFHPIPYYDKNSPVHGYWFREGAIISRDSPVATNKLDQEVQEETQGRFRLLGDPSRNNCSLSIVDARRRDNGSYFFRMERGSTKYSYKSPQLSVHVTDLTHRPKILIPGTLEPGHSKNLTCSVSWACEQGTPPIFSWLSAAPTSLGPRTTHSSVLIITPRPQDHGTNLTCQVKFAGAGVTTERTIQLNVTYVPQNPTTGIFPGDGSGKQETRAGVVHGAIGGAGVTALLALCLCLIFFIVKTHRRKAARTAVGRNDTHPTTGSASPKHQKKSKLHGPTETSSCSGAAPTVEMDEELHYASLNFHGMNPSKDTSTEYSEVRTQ
Method: as §1, §2

[5] = target: human CD33 W22Q (human, UniProt P20138 18-364); experiment: flow cytometry, mutant on cells, IgG
human CD33 W22Q, sequence (P20138 18-364 W22Q limits assumed): as the sequence (P20138 18-364 L23M limits assumed) above, with W5Q, M6L counted along it
Method: as §1, §2

[6] = target: human CD33 F44S (human, UniProt P20138 18-364); experiment: flow cytometry, mutant on cells, IgG
human CD33 F44S, sequence (P20138 18-364 F44S limits assumed): as the sequence (P20138 18-364 L23M limits assumed) above, with M6L, F27S counted along it
Method: as §1, §2

[7] = target: human CD33 F44H (human, UniProt P20138 18-364); experiment: flow cytometry, mutant on cells, IgG
Method: as §1, §2

[8] = target: human CD33 Q24V (human, UniProt P20138 18-364); experiment: flow cytometry, mutant on cells, IgG
human CD33 Q24V, sequence (P20138 18-364 Q24V limits assumed): as the sequence (P20138 18-364 L23M limits assumed) above, with M6L, Q7V counted along it
Method: as §1, §2

[9] = target: human CD33 F43V (human, UniProt P20138 18-364); experiment: flow cytometry, mutant on cells, IgG
Method: as §1, §2

[10] = target: human CD33 P19L (human, UniProt P20138 18-364); experiment: flow cytometry, mutant on cells, IgG
human CD33 P19L, sequence (P20138 18-364 P19L limits assumed): as the sequence (P20138 18-364 L23M limits assumed) above, with P2L, M6L counted along it
Method: as §1, §2

[11] = target: human CD33 D18R (human, UniProt P20138 19-364); experiment: flow cytometry, mutant on cells, IgG
human CD33 D18R, sequence (P20138 18-364 D18R limits assumed): as the sequence (P20138 18-364 L23M limits assumed) above, with D1R, M6L counted along it
Method: as §1, §2

[12] = target: human CD33 Q24N (human, UniProt P20138 18-364); experiment: flow cytometry, mutant on cells, IgG
human CD33 Q24N, sequence (P20138 18-364 Q24N limits assumed): as the sequence (P20138 18-364 L23M limits assumed) above, with M6L, Q7N counted along it
Method: as §1, §2

[13] = target: human CD33 N20Q (human, UniProt P20138 18-364); experiment: flow cytometry, mutant on cells, IgG
human CD33 N20Q, sequence (P20138 18-364 N20Q limits assumed): as the sequence (P20138 18-364 L23M limits assumed) above, with N3Q, M6L counted along it
Method: as §1, §2

[14] = target: human CD33 V25M (human, UniProt P20138 18-364); experiment: flow cytometry, mutant on cells, IgG
human CD33 V25M, sequence (P20138 18-364 V25M limits assumed): as the sequence (P20138 18-364 L23M limits assumed) above, with M6L, V8M counted along it
Method: as §1, §2

[15] = target: human CD33 W22R (human, UniProt P20138 18-364); experiment: flow cytometry, mutant on cells, IgG
human CD33 W22R, sequence (P20138 18-364 W22R limits assumed): as the sequence (P20138 18-364 L23M limits assumed) above, with W5R, M6L counted along it
Method: as §1, §2

[16] = target: human CD33 P46D (human, UniProt P20138 18-364); experiment: flow cytometry, mutant on cells, IgG
human CD33 P46D, sequence (P20138 18-364 P46D limits assumed): as the sequence (P20138 18-364 L23M limits assumed) above, with M6L, P29D counted along it
Method: as §1, §2

[17] = target: human CD33 N20P (human, UniProt P20138 18-364); experiment: flow cytometry, mutant on cells, IgG
Method: as §1, §2

[18] = target: human CD33 F44Q (human, UniProt P20138 18-364); experiment: flow cytometry, mutant on cells, IgG
Method: as §1, §2

[19] = target: human CD33 Q24S (human, UniProt P20138 18-364); experiment: flow cytometry, mutant on cells, IgG
human CD33 Q24S, sequence (P20138 18-364 Q24S limits assumed): as the sequence (P20138 18-364 L23M limits assumed) above, with M6L, Q7S counted along it
Method: as §1, §2

[20] = target: human CD33 L134F (human, UniProt P20138 18-364); experiment: flow cytometry, transfected cells, IgG;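 also: CD33 point mutants transiently expressed in HEK293-T cells, antibody binding read by fluorescence, background subtracted and normalized to wild-type CD33 as 100%, duplicates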
Method: as §1, §2

[21] = target: human CD33 K52E (human, UniProt P20138 18-364); experiment: flow cytometry, transfected cells, IgG;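 also: CD33 point mutants transiently expressed in HEK293-T cells, antibody binding read by fluorescence, background subtracted and normalized to wild-type CD33 as 100%, duplicates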
Method: as §1, §2

[22] = target: human CD33 R122E (human, UniProt P20138 18-364); experiment: flow cytometry, transfected cells, IgG;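 also: CD33 point mutants transiently expressed in HEK293-T cells, antibody binding read by fluorescence, background subtracted and normalized to wild-type CD33 as 100%, duplicates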
Method: as §1, §2

[23] = target: human CD33 P132Y (human, UniProt P20138 18-364); experiment: flow cytometry, transfected cells, IgG;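 also: CD33 point mutants transiently expressed in HEK293-T cells, antibody binding read by fluorescence, background subtracted and normalized to wild-type CD33 as 100%, duplicates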
Method: as §1, §2

[24] = target: human CD33 M120L (human, UniProt P20138 18-364); experiment: flow cytometry, transfected cells, IgG
Method: as §1, §2

[25] = target: human CD33 K52G (human, UniProt P20138 18-364); experiment: flow cytometry, transfected cells, IgG
Method: as §1, §2

[26] = target: human CD33 K52S (human, UniProt P20138 18-364); experiment: flow cytometry, transfected cells, IgG
Method: as §1, §2

[27] = target: human CD33 K52T (human, UniProt P20138 18-364); experiment: flow cytometry, transfected cells, IgG
Method: as §1, §2

[28] = target: human CD33 Y127H (human, UniProt P20138 18-364); experiment: flow cytometry, transfected cells, IgG
Method: as §1, §2

[29] = target: human CD33 S131H (human, UniProt P20138 18-364); experiment: flow cytometry, transfected cells, IgG
Method: as §1, §2

[30] = target: human CD33 M120I (human, UniProt P20138 18-364); experiment: flow cytometry, transfected cells, IgG
Method: as §1, §2

[31] = target: human CD33 P132Q (human, UniProt P20138 18-364); experiment: flow cytometry, transfected cells, IgG
Method: as §1, §2

[32] = target: human CD33 R122I (human, UniProt P20138 18-364); experiment: flow cytometry, transfected cells, IgG
Method: as §1, §2

[33] = target: human CD33 P132F (human, UniProt P20138 18-364); experiment: flow cytometry, transfected cells, IgG
Method: as §1, §2

[34] = target: human CD33 K52H (human, UniProt P20138 18-364); experiment: flow cytometry, transfected cells, IgG
Method: as §1, §2

[35] = target: human CD33 Y127E (human, UniProt P20138 18-364); experiment: flow cytometry, transfected cells, IgG
Method: as §1, §2

[36] = target: human CD33 D51Y (human, UniProt P20138 18-364); experiment: flow cytometry, transfected cells, IgG
Method: as §1, §2

[37] = target: human CD33 P132H (human, UniProt P20138 18-364); experiment: flow cytometry, transfected cells, IgG
Method: as §1, §2

[38] = target: human CD33 P132N (human, UniProt P20138 18-364); experiment: flow cytometry, transfected cells, IgG
Method: as §1, §2

human CD33 Q24E, sequence (P20138 18-364 Q24E limits assumed): as the sequence (P20138 18-364 L23M limits assumed) above, with M6L, Q7E counted along it
human CD33 F21I, sequence (P20138 18-364 F21I limits assumed): as the sequence (P20138 18-364 L23M limits assumed) above, with F4I, M6L counted along it

Mean % WT Binding [1]: 1 % WT binding | Mean % WT Binding [2]: 0.5 % WT binding | Mean % WT Binding [3]: 0.8 % WT binding | Mean % WT Binding [4]: 98.1 % WT binding | Mean % WT Binding [5]: 12.5 % WT binding | Mean % WT Binding [6]: 11.4 % WT binding | Mean % WT Binding [7]: 91.2 % WT binding | Mean % WT Binding [8]: 24.5 % WT binding | Mean % WT Binding [9]: 101 % WT binding | Mean % WT Binding [10]: 117 % WT binding | Mean % WT Binding [11]: 5.3 % WT binding | Mean % WT Binding [12]: 35.3 % WT binding | Mean % WT Binding [13]: 3.4 % WT binding | Mean % WT Binding [14]: 90.4 % WT binding | Mean % WT Binding [15]: 0.9 % WT binding | Mean % WT Binding [16]: 0.6 % WT binding | Mean % WT Binding [17]: 1.7 % WT binding | Mean % WT Binding [18]: 105 % WT binding | Mean % WT Binding [19]: 5.3 % WT binding
B1: Refmab #3 (antibody, human IgG1, V domains shown)
VH: QVQLVQSGAEVKKPGSSVKVSCKASGYTFTDYNMHWVRQAPGQGLEWIGYIYPYNGGTGYNQKFKSKATITADESTNTAYMELSSLRSEDTAVYYCARGRPAMDYWGQGTLVTVSS
VL: DIQMTQSPSSLSASVGDRVTITCRASESVDNYGISFMNWFQQKPGKAPKLLIYAASNQGSGVPSRFSGSGSGTDFTLTISSLQPDDFATYYCQQSKEVPWTFGQGTKVEIK
notes: Tested in IgG format; human IgG1 Fc silent (PG-LALA)

Mean % WT Binding [1]: 114 % WT binding | Mean % WT Binding [2]: 96.3 % WT binding | Mean % WT Binding [3]: 69.7 % WT binding | Mean % WT Binding [4]: 92.7 % WT binding | Mean % WT Binding [5]: 111 % WT binding | Mean % WT Binding [6]: 93.8 % WT binding | Mean % WT Binding [7]: 84.9 % WT binding | Mean % WT Binding [8]: 81.5 % WT binding | Mean % WT Binding [9]: 81.5 % WT binding | Mean % WT Binding [10]: 101 % WT binding | Mean % WT Binding [11]: 100 % WT binding | Mean % WT Binding [12]: 107 % WT binding | Mean % WT Binding [13]: 99.4 % WT binding | Mean % WT Binding [14]: 81.1 % WT binding | Mean % WT Binding [15]: 114 % WT binding | Mean % WT Binding [16]: 110 % WT binding | Mean % WT Binding [17]: 98.5 % WT binding | Mean % WT Binding [18]: 102 % WT binding | Mean % WT Binding [19]: 96.8 % WT binding
B2: Refmab #4 (antibody, human IgG1, V domains shown)
VH: QVQLVQSGAEVKKPGESVKVSCKASGYTFTNYGMNWVKQAPGQGLEWMGWINTYTGEPTYADKFQGRVTMTTDTSTSTAYMEIRNLGGDDTAVYYCARWSWSDGYYVYFDYWGQGTSVTVSS
VL: DIVMTQSPDSLTVSLGERTTINCKSSQSVLDSSTNKNSLAWYQQKPGQPPKLLLSWASTRESGIPDRFSGSGSGTDFTLTIDSPQPEDSATYYCQQSAHFPITFGQGTRLEIK
notes: as for B1

Mean % WT Binding [20]: 90.7% | Mean % WT Binding [21]: 121% | Mean % WT Binding [22]: 96% | Mean % WT Binding [23]: 1.1% | Mean % WT Binding [24]: 101% | Mean % WT Binding [25]: 105% | Mean % WT Binding [26]: 107% | Mean % WT Binding [27]: 106% | Mean % WT Binding [28]: 112% | Mean % WT Binding [29]: 68.5% | Mean % WT Binding [30]: 102% | Mean % WT Binding [31]: 5.4% | Mean % WT Binding [32]: 107% | Mean % WT Binding [33]: 1.6% | Mean % WT Binding [34]: 86.1% | Mean % WT Binding [35]: 102% | Mean % WT Binding [36]: 71.3% | Mean % WT Binding [37]: 86.6% | Mean % WT Binding [38]: 2.2%
B3: Refmab #6 (antibody, human IgG1, V domains shown)
VH: QVQLQQPGAEVVKPGASVKMSCKASGYTFTSYYIHWIKQTPGQGLEWVGVIYPGNDDISYNQKFQGKATLTADKSSTTAYMQLSSLTSEDSAVYYCAREVRLRYFDVWGQGTTVTVSS
VL: EIVLTQSPGSLAVSPGERVTMSCKSSQSVFFSSSQKNYLAWYQQIPGQSPRLLIYWASTRESGVPDRFTGSGSGTDFTLTISSVQPEDLAIYYCHQYLSSRTFGQGTKLEIK
